Test results reported in patent US20130052176, “APTAMER FOR NGF AND USE THEREOF” (SHIONOGI & CO., LTD, published 2013).

Columns and labels:
[1] = target: T1, NGF (nerve growth factor) (human, UniProt P01138 P01138:122-241); test: cell_activity; neurite outgrowth, NGF 0.38 nM; SPR binding; TF-1 IC50 0.1 nM; details: tags: amine-coupled to CM5 chip in SPR; soluble in cell assays; chain copies: 2
[2] = target: T1, NGF (nerve growth factor); test: cell_activity; neurite outgrowth, NGF 1.1 nM; SPR binding; TF-1 IC50 3.4 nM; details: tags: amine-coupled to CM5 chip in SPR; soluble in cell assays; chain copies: 2
[3] = target: T1, NGF (nerve growth factor); test: cell_activity; neurite outgrowth, NGF 0.38 nM; SPR binding; TF-1 IC50 0.041 nM; details: tags: amine-coupled to CM5 chip in SPR; soluble in cell assays; chain copies: 2
Method: (§1) The neurite outgrowth inhibitory activity of the aptamer obtained in Example 1 was evaluated by using Neuroscreen-1 cell, which is a subclone of PC-12 cells.
(§2) The cells (2500 cells per well) were cultured for one day in an RPMI-1640 medium containing 2.5% horse serum and 1.25% fetal bovine serum in a 96 well flat-bottom plate coated with collagen type IV. […] Two days later, the cytoplasm and nuclei were stained using Cellomics Neurite Outgrowth Kit (manufactured by Thermo Scientific), and neurite length per cell was measured by Cellomics ArrayScan VTI (manufactured by Thermo Scientific). With the neurite length per cell obtained by the addition of NGF alone as inhibitory activity 0%, and that of the cell obtained by NGF free culture for 2 days as inhibitory activity 100%, the inhibitory activity of the aptamer was calculated from the neurite length per cell obtained by culturing with the addition of NGF and the aptamer in mixture. When the inhibitory activity was 0% or below, ‘0%’ is indicated.

[4] = target: T1, NGF (nerve growth factor); test: cell_activity; neurite outgrowth, NGF 0.38 nM; SPR binding; TF-1 IC50 0.052 nM; details: tags: amine-coupled to CM5 chip in SPR; soluble in cell assays; chain copies: 2
Method: as §1, §2

[5] = target: T1, NGF (nerve growth factor); test: cell_activity; neurite outgrowth, NGF 0.38 nM; SPR binding; TF-1 IC50 >0.3 nM; details: tags: amine-coupled to CM5 chip in SPR; soluble in cell assays; chain copies: 2
Method: as §1, §2

[6] = target: T1, NGF (nerve growth factor); test: cell_activity; neurite outgrowth, NGF 1.1 nM; SPR binding; TF-1 IC50 4.3 nM; details: tags: amine-coupled to CM5 chip in SPR; soluble in cell assays; chain copies: 2
[7] = target: T1, NGF (nerve growth factor); test: cell_activity; neurite outgrowth, NGF 0.38 nM; TF-1 IC50 0.075 nM; details: tags: human NGF; chain copies: 2
Method: as §1, §2

[8] = target: T1, NGF (nerve growth factor); test: cell_activity; neurite outgrowth, NGF 1.1 nM; SPR binding; TF-1 IC50 6.8 nM; details: tags: amine-coupled to CM5 chip in SPR; soluble in cell assays; chain copies: 2
Method: as §1, §2

[9] = target: T1, NGF (nerve growth factor); test: cell_activity; neurite outgrowth, NGF 1.1 nM; SPR binding; TF-1 IC50 >10 nM; details: tags: amine-coupled to CM5 chip in SPR; soluble in cell assays; chain copies: 2
Method: as §1, §2

[10] = target: T1, NGF (nerve growth factor); test: cell_activity; neurite outgrowth, NGF 0.38 nM; TF-1 IC50 0.348 nM; details: tags: human NGF; chain copies: 2
Method: as §1, §2

[11] = target: T1, NGF (nerve growth factor); test: cell_activity; neurite outgrowth, NGF 0.38 nM; TF-1 IC50 0.065 nM; details: tags: human NGF; chain copies: 2
Method: as §1, §2

[12] = target: T1, NGF (nerve growth factor); test: cell_activity; neurite outgrowth, NGF 0.38 nM; SPR binding; TF-1 IC50 0.078 nM; details: tags: amine-coupled to CM5 chip in SPR; soluble in cell assays; chain copies: 2
Method: as §1, §2

[13] = target: T1, NGF (nerve growth factor); test: cell_activity; neurite outgrowth, NGF 1.1 nM; SPR binding; TF-1 IC50 2.4 nM; details: tags: amine-coupled to CM5 chip in SPR; soluble in cell assays; chain copies: 2
Method: as §1, §2

T1 sequence (P01138 122-241, one chain of several): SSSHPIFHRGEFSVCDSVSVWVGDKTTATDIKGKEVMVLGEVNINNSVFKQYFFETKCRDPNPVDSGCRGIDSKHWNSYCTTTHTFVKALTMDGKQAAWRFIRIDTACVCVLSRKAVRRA

B1: aptamer ID 26(1) (ssRNA)
RNA: GGGAGACUCGCCAGAGUUGAAAGAAACCCAAAUAAGUGUGCGCAC
modifications: 2'-F pyrimidines; 2'-OMe purines except 2'-OH at 3,5,19-23,25; 5' idT and 3' idT
- IC50 [1]: 0.06 nM

Binder: GGGAGACUCGCCAGAGUUGAAAGAAACCCAAAUAAGUGUGCGCAC (ssRNA, 2'-F pyrimidines; 2'-OMe at 30-32,34,35; other purines 2'-OH) [aptamer ID 26(5)]
- IC50 [2]: < 1 nM

B2: aptamer ID 26(9) (ssRNA)
RNA: GGGAGACUCGCCAGAGUUGAAAGAAACCCAAAUAAGUGUGCGCAC
modifications: 2'-F pyrimidines; 2'-OMe purines except 2'-OH at 3,5,19-22,26; 5' idT and 3' idT
- IC50 [3]: 0.052 nM

B3: aptamer ID 26(12) (ssRNA)
RNA: GGGAGACUCGCCAGAGUUGAAAGAAACCCAAAUAAGUGUGCGCAC
modifications: 2'-F pyrimidines; 2'-OMe purines except 2'-OH at 3,19-22,24,26; 5' idT and 3' idT
- IC50 [4]: 0.036 nM

B4: aptamer ID 26(37) (ssRNA)
RNA: GGGAGACUCGCCAGAGUUGAAAGAAACCCAAAUAAGUGUGCGCAC
modifications: 2'-F pyrimidines except 2'-OMe at 7; 2'-OMe purines except 2'-OH at 3,19,20,26; PS between 18 and 19; 5' idT and 3' idT
- IC50 [5]: 0.181 nM

Binder: GGGAGACUCGCCAGAGUUGAAAGAAACCCAAAUAAGUGUGCGCAC (ssRNA, 2'-F pyrimidines; 2'-OMe at 6,10,13-16; other purines 2'-OH) [aptamer ID 26(3)]
- IC50 [6]: < 1 nM

B5: aptamer ID 26(72) (mixed)
RNA: GGGAGACUCGCCAGAGUUGAAAGAAACCCAAAUAAGUGUGCGCAC
modifications: 5' PEG80TS4 via C6 amino linker (Tb); 3' idT; 2'-OMe purines except ribo g3,g19,a20,a26; 2'-F c28,c41,c43; dC27,dC29; other pyrimidines 2'-OMe
- IC50 [7]: 0.219 nM

Binder: GGGAGACUCGCCAGAGUUGAAAGAAACCCAAAUAAGUGUGCGCAC (ssRNA, 2'-F pyrimidines; 2'-OMe at 1,2,4,5,23-26; other purines 2'-OH) [aptamer ID 26(4)]
- IC50 [8]: < 1 nM

B6: aptamer ID 26(55) (mixed)
RNA: GGGAGACUCGCCAGAGUUGAAAGAAACCCAAAUAAGUGUGCGCAC
modifications: 5' and 3' idT; 2'-OMe purines except ribo g3,g19,a20,a26; 2'-F c27,c28,c41,c43; dC29,dT39; other pyrimidines 2'-OMe
- IC50 [7]: 0.087 nM

Binder: GGGAGACUCGCCAGAGUUGAAAGAAACCCAAAUAAGUGUGCGCAC (ssRNA, 2'-F pyrimidines; 2'-OMe at 22; other purines 2'-OH) [aptamer ID 26(8)]
- IC50 [9]: < 1 nM

B7: aptamer ID 26(69) (ssRNA)
RNA: GGGAGACUCGCCAGAGUUGAAAGAAACCCAAAUAAGUGUGCGCAC
modifications: 5' PEG40TS4 via ssH linker; 3' idT; 2'-F all pyrimidines; 2'-OMe purines except ribo g3,g19,a20,a26
- IC50 [10]: 0.157 nM

B8: aptamer ID 26(54) (mixed)
RNA: GGGAGACUCGCCAGAGUUGAAAGAAACCCAAAUAAGUGUGCGCAC
modifications: 5' and 3' idT; 2'-OMe purines except ribo g3,g19,a20,a26; 2'-F c28,u39,c41,c43; dC27,dC29; other pyrimidines 2'-OMe
- IC50 [11]: 0.097 nM

B9: aptamer ID 26(61) (ssRNA)
RNA: GGGAGACUCGCCAGAGUUGAAAGAAACCCAAAUAAGUGUGCGCAC
modifications: 2'-F pyrimidines except 2'-OMe at 7,8,9,11,12,17,18,33,37,45 and LNA at c29; 2'-OMe purines except 2'-OH at 3,19,20,26; 5' idT and 3' idT
- IC50 [12]: 0.112 nM

B10: aptamer ID 26(53) (mixed)
RNA: GGGAGACUCGCCAGAGUUGAAAGAAACCCAAAUAAGUGUGCGCAC
modifications: 2'-F pyrimidines except 2'-OMe at 7,8,9,11,12,17,18,33,37,45; 2'-OMe purines except 2'-OH at 3,19,20 and dA at 26; 5' idT and 3' idT
- IC50 [12]: 0.128 nM

Binder: GGGAGACUCGCCAGAGUUGAAAGAAACCCAAAUAAGUGUGCGCAC (ssRNA, 2'-F pyrimidines; 2'-OMe at 21; other purines 2'-OH) [aptamer ID 26(7)]
- IC50 [13]: < 1 nM

B11: aptamer ID 26(71) (ssRNA)
RNA: GGGAGACUCGCCAGAGUUGAAAGAAACCCAAAUAAGUGUGCGCAC
modifications: 5' PEG80TS4 via C6 amino linker (Tb); 3' idT; 2'-OMe purines except ribo g3,g19,a20,a26; 2'-F c27,c28,c29,c41,c43; other pyrimidines 2'-OMe
- IC50 [11]: 0.279 nM
